Consider 1 substance from patent US20220031745A1.

Assay in all cases: quantitative flow cytometry, anti-myc staining of CD8+ T cells; ABC = number of receptors/cell; UnT T cells read ~350
(In flow cytometry, cells or beads pass a laser one at a time.)

Experiment [1] addresses low affinity anti-Her2 SynNotch receptor (4D5 variant LOW scFv, mouse Notch1 minimal regulatory region, Gal4 DBD VP64) (mouse) (UniProt Q01705).
The target of experiment [2] is high affinity anti-Her2 CAR (4D5 variant HIGH scFv, CD8 transmembrane, 41BB, CD3zeta) (UniProt P01732).
Experiment [3] deals with low affinity anti-Her2 CAR (4D5 variant LOW scFv, CD8 transmembrane, 41BB, CD3zeta) (UniProt P01732).

With Anti-myc Alexa-647 (antibody), the ABC (antibody binding capacity) in experiment [1] was determined as 2550; in experiment [2], 19000; in experiment [3], 7600.
